According to the supplement of paper PMC9112550, “Optimization of the antimicrobial peptide Bac7 by deep mutational scanning” (BMC Biology, 2022):

System: Escherichia coli TOP10
Test: shrunken log2 fold change of peptide-encoding DNA abundance (4.5 h post-induction vs induction); higher = less antimicrobial activity (less host growth inhibition)
Settings: time post-induction: 4.5 h; library: site-saturation at positions 5, 18, 19, 20
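Also: peptides expressed intracellularly from a pBAD plasmid library in pooled LB shake-flask culture, induced with 0.3% L-arabinose, DNA abundance read by NGS, three biological replicates, DESeq2 with apeglm shrinkage.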

| Sequence | shrunken log2 fold change |
| --- | --- |
| RRIRLRPPRLPRPRPRPKEEPRP | -0.0533 |
| RRIRGRPPRLPRPRPRPEALPRP | 1.33 |
| RRIRVRPPRLPRPRPRPEMCPRP | -0.0885 |
| RRIRERPPRLPRPRPRPTISPRP | -0.163 |
| RRIRQRPPRLPRPRPRPAFGPRP | 0.171 |
| RRIRIRPPRLPRPRPRPQAFPRP | -0.0625 |
| RRIRIRPPRLPRPRPRPWGIPRP | -0.109 |
| RRIRRRPPRLPRPRPRPSWGPRP | -0.0778 |
| RRIRPRPPRLPRPRPRPNDCPRP | 0.0214 |
| RRIRCRPPRLPRPRPRPCKVPRP | -0.147 |
| RRIRSRPPRLPRPRPRPHCDPRP | -0.38 |
| RRIRLRPPRLPRPRPRPWPGPRP | 0.0987 |
| RRIRLRPPRLPRPRPRPKKQPRP | -0.046 |
| RRIRDRPPRLPRPRPRPLIYPRP | -0.653 |
| RRIRVRPPRLPRPRPRPLTRPRP | 0.196 |
| RRIRIRPPRLPRPRPRPTDVPRP | -0.444 |
| RRIRIRPPRLPRPRPRPSCEPRP | -0.17 |
| RRIRWRPPRLPRPRPRPNDNPRP | -0.425 |
| RRIRYRPPRLPRPRPRPLNRPRP | -1.92 |
| RRIRWRPPRLPRPRPRPFIMPRP | -0.0374 |
| RRIRNRPPRLPRPRPRPQSIPRP | -0.0502 |
| RRIRNRPPRLPRPRPRPTVHPRP | -0.514 |
| RRIRYRPPRLPRPRPRPSKSPRP | -0.257 |
| RRIRPRPPRLPRPRPRPQNDPRP | -0.371 |
| RRIRCRPPRLPRPRPRPMCVPRP | -0.185 |
| RRIRGRPPRLPRPRPRPKEHPRP | 0.627 |
| RRIRNRPPRLPRPRPRPNQPPRP | -0.055 |

| Sequence | shrunken log2 fold change |
| --- | --- |
| RRIRERPPRLPRPRPRPKNTPRP | -0.439 |
| RRIRDRPPRLPRPRPRPDHYPRP | -0.183 |
| RRIRERPPRLPRPRPRPCPVPRP | 0.0397 |
| RRIRGRPPRLPRPRPRPYGGPRP | -0.26 |
| RRIRMRPPRLPRPRPRPQELPRP | 0.0211 |
| RRIRTRPPRLPRPRPRPGNCPRP | 0.0747 |
| RRIRFRPPRLPRPRPRPQPYPRP | -0.34 |
| RRIRCRPPRLPRPRPRPSCWPRP | 0.2 |
| RRIRVRPPRLPRPRPRPFEHPRP | -0.00133 |
| RRIRFRPPRLPRPRPRPSSAPRP | -0.0032 |
| RRIRERPPRLPRPRPRPLEEPRP | 0.239 |
| RRIRDRPPRLPRPRPRPIQVPRP | -0.0916 |
| RRIRKRPPRLPRPRPRPEYGPRP | 0.087 |
| RRIRSRPPRLPRPRPRPWKWPRP | 0.0473 |
| RRIRFRPPRLPRPRPRPFWYPRP | -0.102 |
| RRIRMRPPRLPRPRPRPASYPRP | 0.0757 |
| RRIRVRPPRLPRPRPRPGYFPRP | -0.366 |
| RRIRGRPPRLPRPRPRPTFMPRP | 0.327 |
| RRIRLRPPRLPRPRPRPTGMPRP | 0.056 |
| RRIRTRPPRLPRPRPRPGRMPRP | 0.232 |
| RRIRERPPRLPRPRPRPKINPRP | -0.488 |
| RRIRHRPPRLPRPRPRPRFMPRP | 0.0821 |
| RRIRFRPPRLPRPRPRPQMDPRP | 0.0317 |
| RRIRCRPPRLPRPRPRPMLWPRP | -0.00796 |
| RRIRCRPPRLPRPRPRPARKPRP | 0.21 |
| RRIRQRPPRLPRPRPRPQGVPRP | 0.0036 |
| RRIRVRPPRLPRPRPRPMVKPRP | -0.166 |
